Substitutions are numbered along the chain they refer to.
T1: Biotin-huCGRPaSA (human, not fully specified; biotin (position not given))
T1 construct: exact construct ('aSA') not explained; also called Biotin CGRPaSA; full-length (1-37) CGRP
T1 peptide: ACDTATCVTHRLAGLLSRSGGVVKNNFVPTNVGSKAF

B1: hu219 (antibody, V domains shown)
VH: QVQLVQSGAEVKKPGASVKVSCKASGYTFTDYNMHWVRQAPGQGLEWMGYIYPYNGHTVYNQKFRNRVTLTVDTSSSTAYMELRSLRSDDTAVYYCAREGLGGYWGQGTLVTVSS
VL: DIVLTQSPDSLAVSLGERATINCKASQNIDYDGYTYLNWYQQKPGQPPKVLIYSIFNLESGVPDRFSGSGSGTDFTLTISSLQAEDVAVYYCQQSNEVPYTFGQGTKLEIK
notes: 3H10 HC-2/3E5 LC-1
B2: hu217 (antibody, V domains shown)
VH: B1 VH
VL: DIVLTQSPDSLAVSLGERATINCQASQNIDGNTYMNWYQQKPGQPPKVLIYSIFNLESGVPDRFSGSGSGTDFTLTISSLQAEDVAVYYCQQSNDYPYTFGQGTKLEIK
notes: 3H10 HC-2/2B8 LC2-1
B3: hu12 (antibody, V domains shown)
VH: B1 VH with Y52F, H57V, T58A, Q62R, N66S, V72I
VL: B1 VL with D32G, T35S, L37M, I55V, V98A
notes: 1B2 HC-1/3H10 LC2-1
B4: hu141 (antibody, V domains shown)
VH: B1 VH with Y50N, G56A, H57G, R65N, R84S, S85R
VL: B1 VL
notes: 2B8 HC1-3/3E5 LC-1
B5: hu102 (antibody, V domains shown)
VH: B1 VH with G44R, I51V, H57G, T58S, V59A, R65K, N66S, R84S, D89E
VL: B1 VL
notes: 2A2 HC-1/3E5 LC-1
B6: hu138 (antibody, V domains shown)
VH: B1 VH with Y50N, G56A, H57G, R65N, R84S, S85R
VL: B1 VL with Y31F, T35A, L37M, Q42H, I55V, N96H
notes: 2B8 HC1-3/1F5 LC1-4
B7: hu8 (antibody, V domains shown)
VH: B1 VH with Y52F, H57V, T58A, Q62R, N66S, V72I
VL: B1 VL with Y31F, T35A, L37M, Q42H, I55V, N96H
notes: 1B2 HC-1/1F5 LC1-4
B8: hu206 (antibody, V domains shown)
VH: B1 VH with L70M, R98K
VL: B1 VL
notes: 3H10 HC-1/3E5 LC-1
B9: hu113 (antibody, V domains shown)
VH: B1 VH with Y50N, H57G, R65N, R84S, S85R
VL: B2 VL
notes: 2B8 HC1-1/2B8 LC2-1
B10: hu116 (antibody, V domains shown)
VH: B1 VH with Y50N, H57G, R65N, R84S, S85R
VL: B1 VL with D32G, T35S, L37M, I55V, V98A
notes: 2B8 HC1-1/3H10 LC2-1
B11: hu180 (antibody, V domains shown)
VH: B1 VH with Y52S, H57G, V59A, R65K, N66F, R84S, S85R, A92V
VL: B1 VL
notes: 3E5 HC-3/3E5 LC-1
B12: hu9 (antibody, V domains shown)
VH: B1 VH with Y52F, H57V, T58A, Q62R, N66S, V72I
VL: B2 VL
notes: 1B2 HC-1/2B8 LC2-1
B13: hu126 (antibody, V domains shown)
VH: B1 VH with Y50N, H57G, R65N
VL: B2 VL
notes: 2B8 HC1-2/2B8 LC2-1
B14: hu207 (antibody, V domains shown)
VH: B1 VH with L70M, R98K
VL: B1 VL with D32G, T35S, L37M, I55V, V98A
notes: 3H10 HC-1/3H10 LC2-1
B15: hu152 (antibody, V domains shown)
VH: B1 VH with A24T, G44R, Y52S, H57G, V59A, R65K, N66F, R84S, D89E
VL: B2 VL
notes: 3E5 HC-1/2B8 LC2-1
B16: hu61 (antibody, V domains shown)
VH: B1 VH with Y32F, H57D, T58V, K63N, R65T
VL: B2 VL
notes: 1F5 HC-3/2B8 LC2-1
B17: hu24 (antibody, V domains shown)
VH: B1 VH with G44R, Y52F, H57V, T58A, Q62R, N66S, R84S, D89E
VL: B1 VL
notes: 1B2 HC-2/3E5 LC-1
B18: hu11 (antibody, V domains shown)
VH: B1 VH with Y52F, H57V, T58A, Q62R, N66S, V72I
VL: B1 VL
notes: 1B2 HC-1/3E5 LC-1
B19: hu115 (antibody, V domains shown)
VH: B1 VH with Y50N, H57G, R65N, R84S, S85R
VL: B1 VL
notes: 2B8 HC1-1/3E5 LC-1
B20: hu112 (antibody, V domains shown)
VH: B1 VH with Y50N, H57G, R65N, R84S, S85R
VL: B1 VL with Y31F, T35A, L37M, Q42H, I55V, N96H
notes: 2B8 HC1-1/1F5 LC1-4
B21: hu220 (antibody, V domains shown)
VH: B1 VH
VL: B1 VL with D32G, T35S, L37M, I55V, V98A
notes: 3H10 HC-2/3H10 LC2-1
B22: hu48 (antibody, V domains shown)
VH: B1 VH with Y32F, G44R, H57D, T58V, K63N, R65T, R84S, D89E
VL: B2 VL
notes: 1F5 HC-2/2B8 LC2-1
B23: hu125 (antibody, V domains shown)
VH: B1 VH with Y50N, H57G, R65N
VL: B1 VL with Y31F, T35A, L37M, Q42H, I55V, N96H
notes: 2B8 HC1-2/1F5 LC1-4
B24: hu216 (antibody, V domains shown)
VH: B1 VH
VL: B1 VL with Y31F, T35A, L37M, Q42H, I55V, N96H
notes: 3H10 HC-2/1F5 LC1-4
B25: hu139 (antibody, V domains shown)
VH: B1 VH with Y50N, G56A, H57G, R65N, R84S, S85R
VL: B2 VL
notes: 2B8 HC1-3/2B8 LC2-1
B26: hu35 (antibody, V domains shown)
VH: B1 VH with T30I, Y32F, G44R, H57D, T58V, K63N, R65T, R84S, D89E
VL: B2 VL
notes: 1F5 HC-1/2B8 LC2-1
B27: hu60 (antibody, V domains shown)
VH: B1 VH with Y32F, H57D, T58V, K63N, R65T
VL: B1 VL with Y31F, T35A, L37M, Q42H, I55V, N96H
notes: 1F5 HC-3/1F5 LC1-4
B28: hu165 (antibody, V domains shown)
VH: B1 VH with G44R, Y52S, H57G, V59A, R65K, N66F, R84S, D89E
VL: B2 VL
notes: 3E5 HC-2/2B8 LC2-1
B29: hu203 (antibody, V domains shown)
VH: B1 VH with L70M, R98K
VL: B1 VL with Y31F, T35A, L37M, Q42H, I55V, N96H
notes: 3H10 HC-1/1F5 LC1-4
B30: hu142 (antibody, V domains shown)
VH: B1 VH with Y50N, G56A, H57G, R65N, R84S, S85R
VL: B1 VL with D32G, T35S, L37M, I55V, V98A
notes: 2B8 HC1-3/3H10 LC2-1
B31: hu22 (antibody, V domains shown)
VH: B1 VH with G44R, Y52F, H57V, T58A, Q62R, N66S, R84S, D89E
VL: B2 VL
notes: 1B2 HC-2/2B8 LC2-1

Target: T1, Biotin-huCGRPaSA
Assay: ELISA, supernatant; relative to chimeric C245
Protocol: Biotin CGRPaSA was diluted with PBS (Hyclone) to 1.0 μg/mL, and the dilution was added to a microplate at 100 μL/well. The plate was let stand in an incubator at 37° C. and coated for 90 min and then washed, and 2% BSA was added to the plate at 200 μL/well. The plate was incubated in an incubator at 37° C. for 90 min and then washed. The humanized antibodies in Table 8 and the reference antibody (chimeric antibody C245) were diluted to 1000 ng/mL with a diluent (2% BSA) with a dilution factor of not more than 10. Then, the chimeric antibodies and the reference antibody were serially 2.5-fold diluted on a sample dilution plate. All the chimeric antibody solutions and the reference antibody solution were added into plates at 100 μL/well, and the plates were incubated in a thermostat incubator at 37° C. for 60 min and washed. An HRP-conjugated goat anti-human antibody IgG (manufacturer: Sigma, Cat. No. A0170; Fc specificity) was diluted 5000-fold with 2% BSA and added into the plates at 100 μL/well, and the plates were incubated in the thermostat incubator at 37° C. for 60 min and washed. Chromogenic reagent TMB was carefully added at 100 μL/well to avoid bubbles, and the system was incubated at 37° C. for 15 min away from light for chromogenic reaction. Finally, a 2 M hydrochloric acid solution was added at 100 μL/well to stop the reaction while avoiding bubbles, and the plates were read on a microplate reader within 10 min (wavelength: 450/620 nm).

Binder	Relative binding activity, %
B1	78%
B2	73%
B3	73%
B4	86%
B5	94%
B6	102%
B7	72%
B8	70%
B9	44%
B10	88%
B11	87%
B12	45%
B13	79%
B14	56%
B15	109%
B16	56%

Binder	Relative binding activity, %
B17	73%
B18	49%
B19	98%
B20	14%
B21	83%
B22	40%
B23	34%
B24	58%
B25	84%
B26	65%
B27	11%
B28	87%
B29	33%
B30	84%
B31	76%
